Data: patent US20150351390A1, “COMPOSITIONS AND METHODS FOR AUXIN-ANALOG CONJUGATION” (PIONEER HI-BRED INTERNATIONAL, INC., priority 2012, published 2015)

Key:
[1] = LC-MS assay of GH3 conjugation of 2,4-D with Asp or Glu; assay type: biochemical; details: 5 mM 2,4-D substrate; for kcat (hrs−1) 2,4-D-Asp: conjugation of 2,4-D with Asp by recombinant GH3 protein, 2,4-D-Asp product by LC-MS; for kcat (hrs−1) 2,4-D-Glu: conjugation of 2,4-D with Glu by recombinant GH3 protein, 2,4-D-Glu product by LC-MS
Summary of the method: (§1)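 Rxn: 20 mM Tris-HCl pH 8.0, 5 mM MgCl2, 1 mM DTT, 5 mM ATP, 5 mM auxin, 5 mM Asp/Glu, 44–164 μg/mL purified His-GH3; 30° C., 3 h. MeOH quench, supernatant diluted 20×, LC-MS vs conjugate standards.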

[2] = LC-MS assay of GH3 conjugation of IAA with Asp or Glu; assay type: biochemical; details: for kcat (hrs−1) IAA-Asp: conjugation of IAA with Asp by recombinant GH3 protein, IAA-Asp product by LC-MS; for kcat (hrs−1) IAA-Glu: conjugation of IAA with Glu by recombinant GH3 protein, IAA-Glu product by LC-MS
Summary of the method: as §1

Molecule	kcat (hrs−1) 2,4-D-Asp [1]	kcat (hrs−1) 2,4-D-Glu [1]	kcat (hrs−1) IAA-Asp [2]	kcat (hrs−1) IAA-Glu [2]
PtGH3-5: GH3 protein, accession EEE97566 (protein, listed as Populus trichocarpa) MPEAPKNTLKPSDYNLAEKNKKSLQFIEDVTSNADEAQKKVLEEILSRNAHVEYLQRHGLNGQTNRETFKKVMPVINYEDIQPDINRIANGDASPILCSKPISEFLTSSGTSGGERKLMPTIVEELGRRSLLYSLLMPVMSQFVPDLEKGKGMYFLFIKSEAKTPGGLVARPVLTSYYKSTHFKDRPYDPYTNYTSPNETILCPDSYQSMYSQMLCGLCQHKEVLRVGAVFASGFIRAIRFLEKYWKFLANDIRTGIIDPQITDPSIREAVMKILKPDAKLADFIEAECSKESWQGIITRLWPNTKYVDVIVTGTMSQYIPTLDYYSNGLPLVCTMYASSECYFGVNLNPICKPSEVSYTLIPTMAYFEFLPVNRNNGGINSVSRPKSLKEKEQQELVDLVDVKLDQEYELVVTTYAGLYRYRVGDVLRVVGFKNKAPQFSFICRKNVVLSIDSDKTDEVELQSAVKNAVNHLIPFDATLAEYTSYADTTTIPGHYVLFWELSLSGSTPIPPSVFEDCCLTIEESLNSVYRQGRVSDKSIGPLEIKIVEPGTFDKLMDYAISLGASINQYKTPRCVKFAPIVELLNSRAVSRYFSPKCPKWVPGHKQWNKN	3.142 h⁻¹	1.214 h⁻¹	941.117 h⁻¹	160.490 h⁻¹
ThBAJ34606: GH3 protein, accession BAJ34606 (protein, listed as Thellungiella halophila) MPEAPKNESLEIFDLTLDEKNKRKLQLIEELTSNADQVQRRVLEEILTRNADVEYLRRHDLDGRTDRETFKNVMPVITYEDIQPEINRIANGDKSHILSIKPISEFLTSSGTSGGERKLMPTIEEELDRRSLLYSLLMPVMSQFVPGLDKGKGMYFLFIKSESKTPGGLPARPVLTSYYKSSHFKERPFDPYTNYTSPNETILCPDSYQSMYSQMLCGLCQHQEVLRVGAVFASGFIRAIKFLEKHWTELVCDIRTGVLSSLITDPSVREAVAKILKPNPKLADFVESECKKKSWQGIITRLWPNTKYVDVIVTGTMSQYIPTLDYYSNGLPLVCTMYASSECYFGVNLKPLCKPSEVSYTLIPTMAYFEFLPVHRNTGVTNSINLPKALTEKEQQELVDLVDVKLGQEYELVVTTYAGLCRYRVGDLLRVTGFKNKAPQFSFICRKNVVLSIDSDKTDEVELQNAVKNAVTHLVPFDASLSEYTSYADTSSIPGHYVLFWELCLDGNTPIPPSVFEDCCLAVEESLNTVYRQGRVSDKSIGPLEIKIVEPNTFDKLMDYAISLGASINQYKTPRCVKFAPIIELLNSRVVDSYFSPKCPKWVPGHRQWGSN	4.232 h⁻¹	1.750 h⁻¹	610.082 h⁻¹	67.109 h⁻¹
PtGH3-6: GH3 protein, accession EEE95183 (protein, listed as Populus trichocarpa) MPEAPKNTLKTSDYNLAEKNKISLQFIEDVTSNADEVQKKVLEEILSRNAHVEYLQRHGLNGQTNRETFKKAVPVITYEDIQPDINRIANGDTSQILCSKPISEFLTSSGTSGGERKLMPTIEEELGRRSLLYSLLMPVMTQFVPGLEKGKGMYFLFIKSEAKTPGGLVARPVLTSYYKSTHFKDRPYDPYTNYTSPNETILCPDSYQSMYSQMLCGLCQHKEVLRVGAVFASGFIRAIRFLEKHWKLLANDIRTGIIDPQITDPSVREAVMKILKSDPKLADFIEAECSKESWQGIITRLWPNTKYVDVIVTGTMSQYIPTLDYYSNGLPLVCTMYASSECYFGVNLNPICKPSEVSYTLIPTMAYFEFLPVHRNNGVINSVSMPKSLNEKEQQELVDLVDVKLDQEYELVVTTYAGLYRYRVGDVLRVVGFKNKAPRFSFICRKNVVLSIDSDKTDEVELQSAVKNAVNHLIPFDATLAEYTSYADTTTIPGHYVLFWELSLNGSTPIPPSVFEDCCLTIEESLNSVYRQGRASDKSIGPLEIKIVEPGTFDKLMDYAISLGASINQYKTPRCVKFAPIVELLNSRVVTCYFSPKCPKWAPGHKQWSKN	5.415 h⁻¹	2.816 h⁻¹	888.111 h⁻¹	181.954 h⁻¹
VvGH3-2: GH3 protein, accession XP_002283886 (protein, listed as Vitis vinifera) MAVDSGLSSPLGPPACEKDAKALQFIEEMTRNPDQVQEKILAEILSQNGETEYLQRFKLAGATDRDTFKSKVPVVTYEDLQPDIQRIANGDRSPILSSHPISEFLTSSGTSAGERKLMPTIHEEWDRRQKLYSLLMPVMNLYVPGLDKGKGLYFLFVKSETKTPSGLVARPVLTGYYRSEHFKKRPYDPYNVYTSPDEAILCVDSFQSMYAQMLCGLLMHKEVLRVGAVFASGLLRAIRFLQVHWQQLAHDISTGILNPKITDPSVREGLAGILKPSQELADFIIQECSGGNWERIITRIWPNTKYLDVIVTGAMAQYIPTLDYFSGGIPLACTMYASSECYFGLNLKPMSKPSEVSYTIMPNMGYFEFLPHDPSAPPLSRDSPPRLVDLADVEVGKEYELVITTYAGLCRYRVGDILQVTGFHNSAPQFQFIRRKNVLLSIDSDKTDEAELQKAVENASLLLREFNTSVVEYTSFADTKTIPGHYVIYWELLVKDPSNSPTDTVLKQCCLAMEESLNTVYRQGRVADNSIGPLEIRVVKSGTFEELMDYAISRGASINQYKVPRCVNFTPIMELLDSRVLSTYFSPAAPHWTPERRRTD	5.691 h⁻¹	1.113 h⁻¹	1011.181 h⁻¹	45.833 h⁻¹
VvGH3-1: GH3 protein, accession XP_002271252 (protein, listed as Vitis vinifera) MAVDPILSSPLGPAASEKDAKALQFIEEMTRNADSVQERVLAEILSRNGETEYLKRFKLEGSTVRETFKSKIPVIKYEDLQPEIQRIANGDRSAILSAHPISEFLTSSGTSAGERKLMPTIQEELDRRQMLYSLLMPVMNLYVPGLDKGKGLYFLFVKSETRTPGGLLARPVLTSYYKSEHFKTRPYDPYNVYTSPNEAILCADSFQSMYTQMLCGIYERKQVLRLGAVFASGLLRAIRFLQLNWHQLTHDIRTGTLSPKITDPSVRNCVAGVLKPDPELADLVAGECSKDNWEGIITRIWPNTKYLDVIVTGAMAQYIPTLDYYSGGLPLACTMYASSECYFGLNLNPMSKPSEVSYTIMPNMAYFEFLPHEHSSIPLSRDSPPRLVDLAHVEVGKEYELVITTYAGLYRYRVGDILRVTGFHNSAPQFHFVRRKNVLLSIDSDKTDEAELQKAVDNASKLLREVNTSVVEYTSFADTKTIPGHYVIYWELLVKDSANSPSDELLGQCCLAMEESLNSVYRQGRVADNSIGPLEIRVVKSGTFEELMDYAISRGASINQYKVPRCVNFTPIMELLDSRVVSSHFSPALPHWTPARRR	2.529 h⁻¹	0.635 h⁻¹	964.027 h⁻¹	45.433 h⁻¹
RcGH3-3: GH3 protein, accession XP_002524947 (protein, listed as Ricinus communis) MAVDSGLSSPLGPPACEKDAKALQFIEEMTRNIDSVQEKVLAEILSRNAETEYLERFQLNGATDRDAFKSKVPVVTYEDLQPEIQRIANGDRSNIFSSHPISEFLTSSGTSAGERKLMPTIHEELDRRTLLYSLLMPVMNLYVPGLDKGKGLYFLFVKAETKTPGGLVARPVLTSYYKSEHFKNRPFDPYNVYTSPNETILCPDSFQSMYSQMLCGLIMREEVLRVGAVFASGLLRAIRFLQINCKHLAEDISTGTLNPKISDPSIRECMAKILKPNPELAEFITKECSEENWEGIITRIWPNTKYLDVIVTGAMAQYIPTLEYYSNGLPMACTMYASSECYFGVNLNPMVKPSDVSYTIMPNMAYFEFLPHESSSSALSRDSPPRLVDLADVEVGKEYELVITTYAGLNRYRVGDILRVTGFHNAAPQFRFIRRKNVLLSIDSDKTDESELQKAIENASLLLREFNTSVVEYTSYGDTKTIPGHYVIYWELLIKDPSNSPTEQVLNQCCLAMEESLNSVYRQGRVADSSIGPLEIRVVKNGTFEELMDYAISRGASINQYKVPRCVSFTPIMELLDSRVVSKHFSPSLPQWTPERRR	3.813 h⁻¹	1.854 h⁻¹	887.172 h⁻¹	36.015 h⁻¹
RcGH3-6: GH3 protein, accession XP_002533739 (protein, listed as Ricinus communis) MPEAPKNSLISSDYNLSEKNRKTLQFIEDVTSNPDEVQKKVLEEILTRNARVEYLQKHGLNGYTDRESFKKIMPVIAYEDIQPHINRIANGDTSPILCSKPISEFLTSSGTSGGERKLMPTIEEELGRRSLLYSLLMPVMNQFVPGLEKGKGMYFLFIKSEAKTPGGLVARPVLTSYYKSSHFKDRPFDPYTNYTSPNETILCPDSYQSMYSQMLCGLCQRNDVLRVGAVFASGFIRAIRFLEKHWQLLCNDIRTGTVNPQITDLSVREAVMKILKPDPKLADFIAAECSQESWQGIITRLWPNTKYVDVIVTGTMSQYIPTLDYYSNGLPLVCTMYASSECYFGVNLNPLCKPSEVSYTLIPTMAYFEFLPVHRNNGVTNSISMPKSLNEKEQQELVDLVDVKLGQEYELVVTTYAGLYRYRVGDVLRVAGFKNKAPQFNFICRKNVVLSIDSDKTDEVELQNAVKNAVNHLVPFDATLAEYTSYADTTSIPGHYVLFWEITLNGSTPIPPSIFEDCCLTIEESLNSVYRQGRVSDKSIGPLEIKIVEPGTFDKLMDYAISLGASINQYKTPRCVKFAPIVELLNSRVVSSYFSPKCPKWVPGHKQWGNKN	4.189 h⁻¹	2.525 h⁻¹	1037.037 h⁻¹	183.972 h⁻¹
